Data as given in patent publication US12460006B2, “Antibodies against integrin alpha 11 beta 1” (Momenta Pharmaceuticals, Inc., priority 2019, dated 2025).

B1: 6-M8: mouse anti-α11β1 mAb; VH SEQ ID NO: 129, VL SEQ ID NO: 130 (antibody, V domains shown)
VH: QVQLQQPGAELVMPGASVKLSCKASGYTFTNYWMHWVKQRPGQGLEWIGEIDPSDSYTNYNQKFKGKATLTVDKSSSTAYMQLSSLTSEDSAVYYCTRQGSTYAWGQGTSVTVSS
VL: DIVMTQAAFSNPVTLGTSASISCRSSKSLLHSNGITYLYWYLQKPGQSPQLLIYQMSNLASGVPDRFSSSGSGTDFTLRISRVEAEDVGVYYCAQNLELPPTFGGGTKLEIK
B2: 9-B11: mouse anti-α11β1 mAb; VH SEQ ID NO: 115, VL SEQ ID NO: 116 (antibody, V domains shown)
VH: QVQLQQPGAELVRPGTSVKLSCKASGYTFTSYWMHWVQQRPGQGLEWIGVIDPSDSYTNYNQKFKGKATLTVDTSSSSAYMQLSSLTSEDSAVYYCARDDVAMDYWGQGTSVTVSS
VL: DIVVTQSPASLAVSLGQRATISCRASESVDSYGNSFIHWYQQKPGQPPKLLIYRASNLKSGIPARFSGSGSRTDFTLTINPVEADDVATYYCQQSNEDPYTFGGGTKLEIK
B3: 7D8B10: rat anti-α11β1 mAb; VH SEQ ID NO: 153, VL SEQ ID NO: 154 (antibody, V domains shown)
VH: MDLRLTYVFIVAILKGVLCEVKLEESGGGLVQPGMSVKLSCATSGFIFSDYWMEWVRQAPGKGLEWVAEIRNKANNYATYYGKSMKGRFTISRDDSKSIVYLQVNSIRSEDTAIYYCAPNFDYWGQGVMVTVSS
VL: MSPVQSLFLLLLWILGTHGDVVLTQTPPTLSATIGQSVSISCRSSQSLLHSTGNTYLNWLLQRPGQPPQLLIYLVSRLESGVPNRFSASGSGTDFTLKISGIEAEDLGVYYCVQSSHTPYTFGTGTKLELK
B4: 6-B21: mouse anti-α11β1 mAb; VH SEQ ID NO: 123, VL SEQ ID NO: 124 (antibody, V domains shown)
VH: EVQLQQSGPELVKPGASVKISCKASGYTFTDYYMNWVKQSHGKSLEWIGDINPHNGGTSFIQKFKGKATLTVDKSSSTAYMELRSLTSEDSAVYYCAPLGRKEGFAYWGQGTLVTVSA
VL: DTVLTQSPASLVVSLGQRATISCRASKSVSTSGYSYMHWYQQKPGQPPKLLIYLASNLESGVPARFSGSGSGTAFTLNIHPVEEEDAATYYCQHSRELPYTFGGGTKLEIK
B5: 6-A12: mouse anti-α11β1 mAb; VH SEQ ID NO: 127, VL SEQ ID NO: 128 (antibody, V domains shown)
VH: QVTLKESGPGILQPSQTLSLTCSFSGFSLRTFAMGVGWIRQPSGKGLEWLAHIWWDDDKYYNPALKSRLTISKDTSKNQVFLKIANVDTADTATYYCARMPLTFYFDYWGQGTTLTVSS
VL: DVLMTQTPLSLPVSLGDQASISCRSSQSIVHSNGNTYLEWYLQKPGQSPKLLIYKVSTRFSGVPDRFSGSGSGTDFTLKISRVEAEDLGVYYCFQGSHVPFTFGGGTKLEIK
B6: 18E10F10: rat anti-α11β1 mAb; VH SEQ ID NO: 155, VL SEQ ID NO: 156 (antibody, V domains shown)
VH: MDIRLSLVFLVLFMKGVQCEVQLVESGGGLVQPGRSLKLSCAASRFTFSDYNMAWVRQAPKKGLEWVATIYHDDSGSYYRDSVKGRFTISRNNAKSTLYLQMDSLRSEDMATYYCARHNNGFDYWGQGVMVTVAS
VL: MKWPVRLLVLFFWIPASGGDVVMTQTPVSLPVRLGGQASISCRSSQSLVHSNGNTYLHWYLQKPGQSPQLLINRVSNRFSGVPDRFSGSGSGTDFTLKINRVEPEDLGDYYCLQSTHFPLTFGSGTKLETK
B7: 6-O12: mouse anti-α11β1 mAb; VH SEQ ID NO: 117, VL SEQ ID NO: 118 (antibody, V domains shown)
VH: EVKLEESGGGLVQPGGSMKLSCAASGFTFSDAWMDWVRQSPEAGLEWVAEIRNKAHNPATYYAESVKGRFTISRDDSKSSVYLQMNSLRAEDTGIYYCTLVAPDAMDYWGQGTSVTVSS
VL: DIVMSLSPSSLAVSVGEKVTMSCKSSQSLLYSRNQKNYLAWYQQKPGQSPKLLIYWASTRASGVPDRFTGSGSGTDFTLTISSVKAEDLAVYYCQQYYSYPYTFGGGTKLEIK
B8: 7-H14: mouse anti-α11β1 mAb; VH SEQ ID NO: 121, VL SEQ ID NO: 122 (antibody, V domains shown)
VH: QVQLQQPGAELVRPGASVKLSCKPSGYTFTSYWMNWVKQRPGQGLEWIGMIDPSDSETHYNQMFKDKATLTVDKSSNTAYMQLSSLTSEDSAVYYCAQIYYAYDKAYWGQGTLVTVSA
VL: DIVMSQSPSSLAVSVGEKVTMSCKSSQSLLYSSHQKNYLAWYQQKPGQSPKLLIYWASTRESGVPDRFTGSGSGTDFSLTISSVKAEDLAVYYCQEYYSWTFGGGTKLEIK

Assays:
mouse α11β1 = mouse α11β1 (Mus musculus, UniProt P61622); assay: ELISA binding to recombinant mouse α11β1; details: binding Yes/No
Procedure: 0.25 μg/mL of target antigen (recombinant human or mouse α11β1) was plated in a 96-well plate over night at 4° C. Plates were washed (PBS with 0.1% Tween-20), blocked (PBS with 2% BSA and 0.05% Tween-20) for 1 hour at room temperature and incubated with a range of antibody concentrations for 1 hour at room temperature. Subsequently, plates were washed and incubated with biotinylated anti-rabbit/mouse/human IgG in a 1:1000 dilution buffer and incubated for 1 hour at room temperature. After washing the plates, Streptavidin HRP was added at 1:200 in dilution buffer and incubated for 1 hour at room temperature. Ultra TMB ELISA substrate solution was added and the plates incubated for 5 minutes on a plate shaker. The reaction was stopped by adding stop solution to each well and plates were read at 450 nm.

[1] = molecular target: T1, α11β1 expressed on the surface of CHO-K1 cells (Homo sapiens, UniProt Q9UKX5); assay: FACS antibody binding to CHO-K1 cells expressing human α11; details: binding Yes/No
T1 construct: expressed in transfected cells; host or cells: CHO-K1
T1 sequence (Q9UKX5 23-1188): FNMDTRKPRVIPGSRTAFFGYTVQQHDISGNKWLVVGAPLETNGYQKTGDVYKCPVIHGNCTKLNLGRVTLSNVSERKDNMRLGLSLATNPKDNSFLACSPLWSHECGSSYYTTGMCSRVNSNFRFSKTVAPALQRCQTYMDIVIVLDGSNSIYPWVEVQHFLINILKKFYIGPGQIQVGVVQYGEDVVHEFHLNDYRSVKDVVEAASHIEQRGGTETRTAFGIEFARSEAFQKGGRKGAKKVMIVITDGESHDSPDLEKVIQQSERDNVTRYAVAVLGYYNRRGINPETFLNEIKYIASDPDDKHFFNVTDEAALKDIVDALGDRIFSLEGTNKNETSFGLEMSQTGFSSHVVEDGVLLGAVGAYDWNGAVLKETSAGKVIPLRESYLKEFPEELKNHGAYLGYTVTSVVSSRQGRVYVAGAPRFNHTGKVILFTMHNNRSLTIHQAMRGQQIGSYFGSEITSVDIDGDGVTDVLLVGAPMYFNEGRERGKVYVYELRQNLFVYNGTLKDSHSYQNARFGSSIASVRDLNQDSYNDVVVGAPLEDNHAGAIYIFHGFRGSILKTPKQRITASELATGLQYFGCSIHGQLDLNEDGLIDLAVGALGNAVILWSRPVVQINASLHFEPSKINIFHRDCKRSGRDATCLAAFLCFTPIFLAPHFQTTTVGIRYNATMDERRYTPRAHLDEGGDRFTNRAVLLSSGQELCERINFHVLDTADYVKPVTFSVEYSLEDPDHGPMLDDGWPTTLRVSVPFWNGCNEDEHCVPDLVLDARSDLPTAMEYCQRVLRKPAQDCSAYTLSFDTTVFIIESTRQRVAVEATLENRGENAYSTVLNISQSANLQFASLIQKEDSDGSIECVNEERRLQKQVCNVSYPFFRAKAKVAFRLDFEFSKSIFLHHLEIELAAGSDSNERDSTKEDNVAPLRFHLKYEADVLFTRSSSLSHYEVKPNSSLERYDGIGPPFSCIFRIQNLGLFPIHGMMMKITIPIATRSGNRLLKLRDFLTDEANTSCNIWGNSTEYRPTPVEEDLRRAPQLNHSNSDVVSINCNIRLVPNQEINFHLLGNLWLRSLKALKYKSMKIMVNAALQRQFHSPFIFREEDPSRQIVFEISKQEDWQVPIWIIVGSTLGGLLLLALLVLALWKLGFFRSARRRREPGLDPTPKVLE
Procedure: 200,000 cells (wild-type CHO-K1 cells or CHO-K1 cells expressing human α11) were incubated with each antibody at desired concentrations in FACS buffer for 30 min at 4° C. Then, the cells were washed with FACS buffer and incubated with secondary antibody at 1:100 dilution for 30 minutes at 4° C. Cells were then washed and fixed with 1% PFA in PBS for 20 minutes at room temperature; washed again and read on a cytometer in FACS buffer.
Since integrins are large, transmembrane receptors that exist in different conformational shapes, experiments were performed to confirm that the novel antibodies also bound cell-expressed α11β1. A CHO-K1 cell line that endogenously expressed high levels of the β1 subunit was engineered to stably express human α11 (CHO-K1 hu α11).
Binding EC50 was estimated using data from Fluorescence-activated cell sorting (FACS) performed with CHO-K1 hu α11β1 cells.

[2] = system: Human Pulmonary Fibroblasts; assay: Fibroblast-to-Myofibroblasts Transition (FMT), αSMA expression; assay type: cell-based; details: Yes/No
Procedure: Human Pulmonary Fibroblasts (ScienCell) were cultured in complete Fibroblast Growth Medium (ScienCell) until 80% confluent. Cells were washed and harvested using Accutase. Cells were seeded onto tissue culture-treated 96 well plates at 20,000 cells/well in complete Fibroblast Growth Medium. After 24 hours, cells were washed and starved in serum reduced medium for an additional 24 hours. After starvation, cells were treated with TGFβ-1 (R&D Systems) with or without anti-α11 antibodies. A polyclonal rabbit anti-human α11 antibody was used as a positive control. Appropriate IgG isotype controls were also included. After 48 hours, cells were harvested, fixed, permeabilized and stained with AlexaFluor488 Labeled Anti-αSMA (α-smooth muscle actin) (Invitrogen). Cells were acquired on a FACS Verse (Benton Dickson) to determine expression levels of αSMA. Data were analyzed by gating on single cells and determining the geometric Mean Fluorescence Intensity (gMFI) in the FITC channel for each sample. gMFI for each sample was normalized to the untreated control and presented as % inhibition.
In addition to the binding abilities described above, it is important for an anti-α11β1 antibody to inhibit the fibroblast-to-myofibroblast transition (FMT). It is now appreciated that myofibroblasts are a heterogeneous cell population, existing in different activation states, with the main function of producing and contracting collagen extracellular matrix (ECM). FMT is a multi-step event that is controlled by a changing mechanical environment in tissues undergoing repair. TGFβ is one of the potent factors that potentiates this process and alpha smooth muscle actin (αSMA) is one of the main markers that becomes overexpressed when fibroblasts are undergoing the transition to becoming myofibroblasts. The presence of αSMA enhances fibroblast contraction and guides myofibroblast activation through an intracellular feedback loop. Because αSMA is the main molecular marker of myofibroblasts, the ability of the novel anti-α11β1 mAbs to inhibit αSMA expression in TGFβ-induced FMT was tested.

mouse α11β1, sequence (P61622 23-1141 limits assumed): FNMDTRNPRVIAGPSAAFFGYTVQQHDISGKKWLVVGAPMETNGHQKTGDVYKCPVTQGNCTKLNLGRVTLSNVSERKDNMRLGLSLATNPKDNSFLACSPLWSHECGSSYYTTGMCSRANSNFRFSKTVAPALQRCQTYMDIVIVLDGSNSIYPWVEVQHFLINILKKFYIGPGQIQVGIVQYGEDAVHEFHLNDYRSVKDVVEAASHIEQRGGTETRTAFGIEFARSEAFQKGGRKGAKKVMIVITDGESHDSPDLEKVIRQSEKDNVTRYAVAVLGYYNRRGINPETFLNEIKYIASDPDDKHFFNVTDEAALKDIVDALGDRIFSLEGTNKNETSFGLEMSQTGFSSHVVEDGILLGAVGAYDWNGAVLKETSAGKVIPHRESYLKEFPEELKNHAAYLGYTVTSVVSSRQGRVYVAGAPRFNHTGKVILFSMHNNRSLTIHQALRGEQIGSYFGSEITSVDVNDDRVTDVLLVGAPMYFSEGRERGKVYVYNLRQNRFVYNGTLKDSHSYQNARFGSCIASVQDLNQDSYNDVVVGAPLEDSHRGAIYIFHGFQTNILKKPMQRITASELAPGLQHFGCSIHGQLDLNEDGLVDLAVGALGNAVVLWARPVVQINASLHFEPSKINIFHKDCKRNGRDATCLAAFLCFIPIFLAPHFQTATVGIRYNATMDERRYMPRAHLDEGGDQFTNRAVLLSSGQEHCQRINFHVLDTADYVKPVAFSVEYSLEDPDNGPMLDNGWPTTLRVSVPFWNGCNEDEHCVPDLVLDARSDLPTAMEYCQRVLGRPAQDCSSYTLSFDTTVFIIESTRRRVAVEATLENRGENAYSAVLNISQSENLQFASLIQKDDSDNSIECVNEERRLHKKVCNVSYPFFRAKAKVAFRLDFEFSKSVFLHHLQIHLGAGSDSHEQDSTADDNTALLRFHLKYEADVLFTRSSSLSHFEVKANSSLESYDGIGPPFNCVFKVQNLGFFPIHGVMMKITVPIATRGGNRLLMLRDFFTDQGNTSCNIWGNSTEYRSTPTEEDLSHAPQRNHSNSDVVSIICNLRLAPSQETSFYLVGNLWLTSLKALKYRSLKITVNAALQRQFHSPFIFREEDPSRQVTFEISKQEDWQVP
mouse α11β1, sequence (P09055 21-728 partner limits assumed): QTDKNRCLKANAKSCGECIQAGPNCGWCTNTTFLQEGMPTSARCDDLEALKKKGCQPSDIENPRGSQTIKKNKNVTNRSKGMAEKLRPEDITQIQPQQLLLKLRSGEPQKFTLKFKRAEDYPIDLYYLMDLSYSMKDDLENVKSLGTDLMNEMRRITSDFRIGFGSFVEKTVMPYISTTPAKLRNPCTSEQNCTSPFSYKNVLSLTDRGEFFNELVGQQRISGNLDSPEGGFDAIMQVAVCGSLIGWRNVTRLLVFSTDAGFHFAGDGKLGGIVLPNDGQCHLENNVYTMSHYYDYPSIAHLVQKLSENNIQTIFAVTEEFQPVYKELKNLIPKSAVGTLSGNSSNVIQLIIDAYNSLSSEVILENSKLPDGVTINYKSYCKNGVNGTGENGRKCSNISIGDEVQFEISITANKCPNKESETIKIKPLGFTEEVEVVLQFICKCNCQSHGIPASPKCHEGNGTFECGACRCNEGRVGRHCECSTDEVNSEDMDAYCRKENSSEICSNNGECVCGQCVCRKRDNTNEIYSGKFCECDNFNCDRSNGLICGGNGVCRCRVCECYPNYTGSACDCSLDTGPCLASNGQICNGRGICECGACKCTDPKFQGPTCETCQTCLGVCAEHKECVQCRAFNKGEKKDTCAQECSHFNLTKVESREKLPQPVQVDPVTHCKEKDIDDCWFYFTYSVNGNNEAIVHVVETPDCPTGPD

Molecule | Murine α11β1 ELISA (mouse α11β1) | CHO-K1 FACS [1] | Inhibition of FMT [2]
B1 | No | No | No
B2 | No | Yes | Yes
B3 | No | Yes | Yes
B4 | Yes/Low | No | No
B5 | Yes/Low | Yes | No
B6 | No | Yes | Yes
B7 | No | No | No
B8 | Yes/Low | Yes | No
